Here are results for one molecule from patent US20230087570A1 (NATIONAL CANCER CENTER, published 2023).

This experiment deals with T1, mouse TIM-3 expressed on cells (mouse, UniProt Q8VIM0 20-281).
T1 construct: whole, on cells; also called mTIM-3
Nature of the experiment: flow cytometry on mouse primary glial cells (FIG. 7 legend). The procedure:
FACS analysis was performed to determine whether the selected antibody, hTIM-3_NCC1, specifically binds to mouse TIM-3 as well as human TIM-3.
Specifically, 0.5 μg of hTIM-3_NCC1 antibody was reacted to mouse primary glial cells for 30 minutes, and then stained with a secondary antibody (APC-human IgG Fc; Biolegend, cat #409305). In addition, mouse CD11b⁺ cells overexpressing mouse TIM-3 (3×10⁵ cells) were separated using a-BV421-conjugated anti-CD11b antibody (BD, cat #562605) and then 0.5 μg of hTIM-3_NCC1 antibody and PE-conjugated anti-mouse were reacted for 30 minutes. These cells were surface-stained with a secondary antibody (APC-Human IgG Fc) and then measured by flow cytometry.

T1 sequence (Q8VIM0 20-281): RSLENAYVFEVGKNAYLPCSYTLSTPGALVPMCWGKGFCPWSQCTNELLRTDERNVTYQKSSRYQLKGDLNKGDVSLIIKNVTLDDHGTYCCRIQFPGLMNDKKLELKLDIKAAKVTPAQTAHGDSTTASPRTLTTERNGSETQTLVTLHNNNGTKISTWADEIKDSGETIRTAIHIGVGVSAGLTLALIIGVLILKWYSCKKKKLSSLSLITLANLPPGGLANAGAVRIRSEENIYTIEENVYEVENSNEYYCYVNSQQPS

B1: hTIM-3_NCC1 (Fc fusion)
scFv: EVQLVESGGGLVQPGGSLRLSCAASGSIFSNGYMTWYRQAPGKGLELVSSINSRGVTNYADSVKGRFTISRDNSKNTLYLQMNSLRAEDTAVYYCAALLPHEIRKYWGQGTQVTVSSGGGSHGGGSGGGSVDDIQMTQSPDSLAVSLGERATINCKSSQSVFYNSNNKNYLGWYQKKPGQPPKLLIFWASTRESGVPDRFSGSGSGTDFTLTISSLQAEDVAVYYCQQYYSTPRTLGGGTKVDIKR
notes: Human scFv from a naive phage library, tested as scFv-hIgG (hIgG1) and detected with anti-human IgG secondary antibodies; also called scFv-TIM3 #4; ScFV-TIM3 #4; not shown: human IgG1 part (named only as 'hscFv-hIgG1')
Consider B1, for which the binding result is recorded as “binds”.
